From US8241627B2, “Modified polypeptides stabilized in a desired conformation and methods for producing same” (The Center for Blood Research, Inc., priority 2000, dated 2012)
Residue numbers refer to the chain shown, from its start. Names may count otherwise.

B1: K287C: single cysteine substitution mutant of LFA-1 αL (protein, UniProt P20701 26-1170, looked up, variant K287C)
Integrin alpha-L: YNLDVRGARSFSPPRAGRHFGYRVLQVGNGVIVGAPGEGNSTGSLYQCQSGTGHCLPVTLRGSNYTSKYLGMTLATDPTDGSILACDPGLSRTCDQNTYLSGLCYLFRQNLQGPMLQGRPGFQECIKGNVDLVFLFDGSMSLQPDEFQKILDFMKDVMKKLSNTSYQFAAVQFSTSYKTEFDFSDYVKRKDPDALLKHVKHMLLLTNTFGAINYVATEVFREELGARPDATKVLIIITDGEATDSGNIDAAKDIIRYIIGIGKHFQTKESQETLHKFASKPASEFVCILDTFEKLKDLFTELQKKIYVIEGTSKQDLTSFNMELSSSGISADLSRGHAVVGAVGAKDWAGGFLDLKADLQDDTFIGNEPLTPEVRAGYLGYTVTWLPSRQKTSLLASGAPRYQHMGRVLLFQEPQGGGHWSQVQTIHGTQIGSYFGGELCGVDVDQDGETELLLIGAPLFYGEQRGGRVFIYQRRQLGFEEVSELQGDPGYPLGRFGEAITALTDINGDGLVDVAVGAPLEEQGAVYIFNGRHGGLSPQPSQRIEGTQVLSGIQWFGRSIHGVKDLEGDGLADVAVGAESQMIVLSSRPVVDMVTLMSFSPAEIPVHEVECSYSTSNKMKEGVNITICFQIKSLIPQFQGRLVANLTYTLQLDGHRTRRRGLFPGGRHELRRNIAVTTSMSCTDFSFHFPVCVQDLISPINVSLNFSLWEEEGTPRDQRAQGKDIPPILRPSLHSETWEIPFEKNCGEDKKCEANLRVSFSPARSRALRLTAFASLSVELSLSNLEEDAYWVQLDLHFPPGLSFRKVEMLKPHSQIPVSCEELPEESRLLSRALSCNVSSPIFKAGHSVALQMMFNTLVNSSWGDSVELHANVTCNNEDSDLLEDNSATTIIPILYPINILIQDQEDSTLYVSFTPKGPKIHQVKHMYQVRIQPSIHDHNIPTLEAVVGVPQPPSEGPITHQWSVQMEPPVPCHYEDLERLPDAAEPCLPGALFRCPVVFRQEILVQVIGTLELVGEIEASSMFSLCSSLSISFNSSKHFHLYGSNASLAQVVMKVDVVYEKQMLYLYVLSGIGGLLLLLLIFIVLYKVGFFKRNLKEKMEAGRGVPNGIPAEDSEQLASGQEAGDPGCLKPLHEKDSESGGGKD
B2: E284C/E301C: high affinity open αL I-domain mutant, E284 and E301 replaced by cysteines (protein)
chain: GNVDLVFLFDGSMSLQPDEFQKILDFMKDVMKKLSNTSYQFAAVQFSTSYKTEFDFSDYVKRKDPDALLKHVKHMLLLTNTFGAINYVATEVFREELGARPDATKVLIIITDGEATDSGNIDAAKDIIRYIIGIGKHFQTKESQETLHKFASKPASCFVKILDTFEKLKDLFTCLQKKIY
B3: L161C/T300C: intermediate-affinity open αL I-domain mutant, cysteines for L161 and T300 (protein)
chain: B2 chain with L34C, C157E, T173C, C174E
B4: K160C/F299C: intermediate-affinity open αL I-domain mutant, cysteines for K160 and F299 (protein)
chain: B2 chain with K33C, C157E, F172C, C174E
B5: L161C/F299C: intermediate-affinity open αL I-domain mutant, cysteines for L161 and F299 (protein)
chain: B2 chain with L34C, C157E, F172C, C174E

Columns and labels:
ICAM-1 [1] = molecular target: T1, ICAM-1 (Homo sapiens, UniProt P05362); assay: Binding of LFA-1 or isolated I-domain transfectants to immobilized ICAM-1; type: cell-based; parameters: ICAM-1 was purified from human tonsil; from tissue; host or cells: human tonsil; settings: 293T
Experimental: Clones of the transfectants that expressed similar levels of cell surface LFA-1, as determined by flow cytometry using monoclonal antibody TS2/4 (FIG. 3B), were tested for their ability to bind to immobilized ICAM-1, as previously described (Lu, C and Springer, T A (1997) J Immunol 159:268-278).
Briefly, ICAM-1 was purified from human tonsil, and coated to 96-well plates as described previously (Lu, C and Springer T A, (1997) J Immunol 159:268-278). Cells were labeled with a florescence dye 2′,7′-bis-(carboxyethyl)-5(and-6)-carboxyfluorescein, acetoxymethyl ester (BCECF-AM), and resuspended to 1×10^6/ml in L15/FBS. 50 μl cell suspension was mixed in ICAM-1 coated wells with an equal volume of L15/FBS in the absence or presence of monoclonal antibody (CBRLFA-1/2, 10 μg/ml). Monoclonal antibodies were used at final concentration of 1:20 hybridoma supernatant, 1:200 ascites, or μg/ml purified IgG. For testing the effect of divalent cations, BCECF-AM-labeled cells were washed 2× with TS buffer, pH7.5 (20 mM Tris, pH 7.5, 150 mMNaCl) containing 5 mM EDTA, followed by 2 washes with TS buffer, pH7.5. Cells were then resuspended to 5×10^5/ml in the TS buffer, pH7.5 supplemented with 1 mM MgCl2/CaCl2, MgCl2, MnCl2 mM EDTA, and 100 μl cell suspension was added to ICAM-1 coated wells. After incubation at 37° C. for 30 minutes, unbound cells were washed off on a Microplate Autowasher (Bio-Tek Instruments, Winooski, Vt.). The fluorescence content of total input cells and the bound cells in each well was quantitated on a Fluorescent Concentration Analyzer (IDEXX, Westbrook, Me.). The bound cells were expressed as a percentage of total input cells per sample well.
For generating stable K562 transfectants that express the I-domain on the surface, 20 μg of SspI-linearized pcDNA3.1/Hygro(+) containing the sequences encoding the I domain and the PDGFR transmembrane domain was used to transfect K562 cells by electroporation as described above. Transfectants were selected for resistance to 100 μg/ml hygromycin B, and were further subcloned by cell sorting and limiting dilution; clones that expressed similar levels of surface wild-type and mutant I domain-PDGFR were selected for functional studies. Stable cell lines were maintained in RPMI medium 1640 supplemented with 10% FBS and 100 μg/ml hygromycin B. Cell surface expression of the isolated I-domains was determined by flow cytometry using antibody TS1/22 to the I-domain (FIG. 7). Two clones from each transfectant were selected and tested for binding to immobilized ICAM-1, and similar results were obtained with each of the two clones (FIG. 8A).
If the constitutive ligand binding activity of mutant K287C/K294C is due to the formation of a disulfide bond between the introduced C287 and C294, disruption of the disulfide bond with a reducing agent would abolish ligand binding ability of the mutant. Accordingly, the transfectants were treated with the reducing agent DTT (10 mM) in L15/FBS containing Mg^2+ and Ca^2+, and the ability of transfectants to bind to ICAM-1 was assessed.
Furthermore, the effect of divalent cations on ligand binding of the isolated I-domains expressed on the surface of K562 transfectants was tested. The binding reactions were performed in HEPES/NaCl/glucose (20 mM HEPES, pH 7.5, 140 mM NaCl, 2 mg/ml glucose) supplemented with 1 mM […], 1 mM Mg^2+, or 1 mM EDTA.
Target sequence in this assay (P05362 28-532): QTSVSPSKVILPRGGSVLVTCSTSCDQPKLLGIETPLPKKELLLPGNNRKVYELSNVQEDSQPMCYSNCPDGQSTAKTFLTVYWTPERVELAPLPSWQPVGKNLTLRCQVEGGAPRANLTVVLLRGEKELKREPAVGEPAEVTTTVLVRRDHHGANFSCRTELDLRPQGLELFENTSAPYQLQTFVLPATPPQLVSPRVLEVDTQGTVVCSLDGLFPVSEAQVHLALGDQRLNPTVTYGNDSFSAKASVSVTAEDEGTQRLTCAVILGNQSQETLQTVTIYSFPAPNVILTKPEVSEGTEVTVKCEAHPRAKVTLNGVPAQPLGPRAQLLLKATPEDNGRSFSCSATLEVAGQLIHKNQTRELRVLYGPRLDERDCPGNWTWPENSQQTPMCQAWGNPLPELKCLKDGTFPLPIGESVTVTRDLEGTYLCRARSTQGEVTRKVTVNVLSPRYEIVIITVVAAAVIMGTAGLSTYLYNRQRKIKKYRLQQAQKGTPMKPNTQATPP

ICAM-1 [2] = molecular target: T1, ICAM-1; assay: BIAcore binding of soluble αL I-domains to ICAM-1; settings: for Kon, interaction of αL I-domains with ICAM-1: calculated by Koff/KD; for Koff, interaction of αL I-domains with ICAM-1: curve fitting of dissociation phase, 1:1 binding model
Experimental: Briefly, recombinant mutant αL I-domain stabilized in the open conformation (K287C/K294C), or recombinant wild-type αL I-domain from amino acid residue G128 to Y307, were cloned into pET11b (Novagen) and expressed in E. coli induced with 1 mM IPTG for 4 hours. The recombinant proteins were purified from inclusion bodies by solubilization of inclusion bodies in 6M guanidine HCl and were refolded by dilution in the presence of 0.1 mM Cu^2+/phenanthrolin to enhance formation of disulfide bonds. Protein was concentrated by ammonium sulfate precipitation, dialyzed, and purified over a monoQ ion-exchange column. […] The recombinant proteins were then purified by gel filtration and concentrated by Centriprep. For BIAcore™ analysis, recombinant ICAM-1, ICAM-2 and ICAM-3 Fc chimeras were immobilized on the BIAcore™ sensor chip by an amine-coupling method. Recombinant αL I-domains were flowed in, and BIAcore™ assays were performed with Tris-buffered saline supplemented with 1 mM MgCl2 or 2 mM EDTA, at a flow rate of 10 μl/minute at 25° C.
Target sequence in this assay (P05362 28-480 limits assumed): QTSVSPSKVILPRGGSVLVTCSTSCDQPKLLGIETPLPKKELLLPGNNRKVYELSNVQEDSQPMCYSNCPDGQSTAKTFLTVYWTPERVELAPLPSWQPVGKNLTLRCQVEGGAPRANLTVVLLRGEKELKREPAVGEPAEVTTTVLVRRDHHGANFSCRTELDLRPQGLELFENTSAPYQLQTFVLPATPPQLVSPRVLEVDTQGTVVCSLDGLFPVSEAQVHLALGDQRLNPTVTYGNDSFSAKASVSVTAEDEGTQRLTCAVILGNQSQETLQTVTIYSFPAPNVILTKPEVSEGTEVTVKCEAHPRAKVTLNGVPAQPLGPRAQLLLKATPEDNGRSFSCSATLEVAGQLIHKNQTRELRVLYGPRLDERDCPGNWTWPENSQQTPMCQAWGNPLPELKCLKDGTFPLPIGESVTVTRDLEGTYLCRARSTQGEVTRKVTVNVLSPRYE

| Molecule | binding of 293T transient transfectants to immobilized ICAM-1 with activating mAb CBRLFA-1/2 (ICAM-1 [1]; CBRLFA-1/2 10 μg/ml) | binding of 293T transient transfectants to immobilized ICAM-1 (ICAM-1 [1]; no activating antibody) | affinity compared with high-affinity open αL I-domain K287C/K294C (times lower) (ICAM-1 [2]; ICAM-1, soluble I-domains) | Kon, interaction of αL I-domains with ICAM-1 (ICAM-1 [2]) [M⁻¹ s⁻¹] | Koff, interaction of αL I-domains with ICAM-1 (ICAM-1 [2]) [s⁻¹] |
| --- | --- | --- | --- | --- | --- |
| B1 | increased | reduced binding | – | – | – |
| B2 | – | – | nearly comparable | 128000 | 0.0459 |
| B3 | – | – | – | 135000 | 0.65 |
| B4 | – | – | – | 153000 | 0.67 |
| B5 | – | – | – | 136000 | 0.513 |
